Patent publication US20220265715A1 (EUREKA THERAPEUTICS, published 2022)
Each block holds one binder with its values, some of them ahead of it.

Biological target: T1, biotinylated AFP158/HLA-A*02:01 tetramer (human, biotinylated via the BSP peptide linked to the C-terminal end of the HLA-A*02:01 extracellular domain)
T1 construct: also called AFP158 tetramer; not shown: BSP peptide (BirA biotinylation site) at the C-terminus
Assay: flow cytometry, AFP158/HLA-A*02:01 tetramer staining of CAR-transduced T cells

binding result: binds
B1: Anti-AFP-CD28z-CAR (other)
chain: QSVLTQPASVSGSPGQSITISCTGTSSDVGGYNYVSWYQQHPGKAPKLMIYDVNNRPSEVSNRFSGSKSGNTASLTISGLQAEDEADYYCSSYTTGSRAVFGGGTKLTVLGSRGGGGSGGGGSGGGGSLEMAEVQLVQSGAEVKKPGESLTISCKASGYSFPNYWITWVRQMSGGGLEWMGRIDPGDSYTTYNPSFQGHVTISIDKSTNTAYLHWNSLKASDTAMYYCARYYVSLVDIWGQGTLVTVSSEQKLISEEDLAAAIEVMYPPPYLDNEKSNGTIIHVKGKHLCPSPLFPGPSKPFWVLVVVGGVLACYSLLVTVAFIIFWVRSKRSRLLHSDYMNMTPRRPGPTRKHYQPYAPPRDFAAYRSRVKFSRSADAPAYQQGQNQLYNELNLGRREEYDVLDKRRGRDPEMGGKPRRKNPQEGLYNELQKDKMAEAYSEIGMKGERRRGKGHDGLYQGLSTATKDTYDALHMQALPPR
notes: Chimeric antigen receptor on transduced primary human T cells: anti-AFP/MHC scFv, myc tag, CD28 TM, CD28 costimulatory domain, CD3zeta; also called αAFP -CD28z CAR

binding result: binds
B2: Anti-AFP-CD30z-CAR (other)
chain: QSVLTQPASVSGSPGQSITISCTGTSSDVGGYNYVSWYQQHPGKAPKLMIYDVNNRPSEVSNRFSGSKSGNTASLTISGLQAEDEADYYCSSYTTGSRAVFGGGTKLTVLGSRGGGGSGGGGSGGGGSLEMAEVQLVQSGAEVKKPGESLTISCKASGYSFPNYWITWVRQMSGGGLEWMGRIDPGDSYTTYNPSFQGHVTISIDKSTNTAYLHWNSLKASDTAMYYCARYYVSLVDIWGQGTLVTVSSEQKLISEEDLAAATGAPPLGTQPDCNPTPENGEAPASTSPTQSLLVDSQASKTLPIPTSAPVALSSTGKPVLDAGPVLFWVILVLVVVVGSSAFLLCHRRACRKRIRQKLHLCYPVQTSQPKLELVDSRPRRSSTQLRSGASVTEPVAEERGLMSQPLMETCHSVGAAYLESLPLQDASPAGGPSSPRDLPEPRVSTEHTNNKIEKIYIMKADTVIVGTVKAELPEGRGLAGPAEPELEEELEADHTPHYPEQETEPPLGSCSDVMLSVEEEGKEDPLPTAASGKRVKFSRSADAPAYQQGQNQLYNELNLGRREEYDVLDKRRGRDPEMGGKPRRKNPQEGLYNELQKDKMAEAYSEIGMKGERRRGKGHDGLYQGLSTATKDTYDALHMQALPPR
notes: Chimeric antigen receptor on transduced primary human T cells: anti-AFP/MHC scFv, myc tag, CD30 TM, CD30 costimulatory domain, CD3zeta; also called αAFP -CD30z CAR
